In patent US8933021B2, “Insulin derivative” (Novo Nordisk A/S, priority 2006, dated 2015):

Legend:
[1] = Hydrophobicity (hydrophobic index k'rel) relative to human insulin by isocratic RP-HPLC; format: physicochemical
Description: The elution was monitored by following the UV absorption of the eluate at 214 nm. Void time, t0, was found by injecting 0.1 mM sodium nitrate.

human insulin receptor = human insulin receptor (Homo sapiens, UniProt P06213); experiment: Insulin receptor binding, SPA antibody capture assay
Chain of human insulin receptor (P06213 28-746 isoform P06213-2 limits assumed): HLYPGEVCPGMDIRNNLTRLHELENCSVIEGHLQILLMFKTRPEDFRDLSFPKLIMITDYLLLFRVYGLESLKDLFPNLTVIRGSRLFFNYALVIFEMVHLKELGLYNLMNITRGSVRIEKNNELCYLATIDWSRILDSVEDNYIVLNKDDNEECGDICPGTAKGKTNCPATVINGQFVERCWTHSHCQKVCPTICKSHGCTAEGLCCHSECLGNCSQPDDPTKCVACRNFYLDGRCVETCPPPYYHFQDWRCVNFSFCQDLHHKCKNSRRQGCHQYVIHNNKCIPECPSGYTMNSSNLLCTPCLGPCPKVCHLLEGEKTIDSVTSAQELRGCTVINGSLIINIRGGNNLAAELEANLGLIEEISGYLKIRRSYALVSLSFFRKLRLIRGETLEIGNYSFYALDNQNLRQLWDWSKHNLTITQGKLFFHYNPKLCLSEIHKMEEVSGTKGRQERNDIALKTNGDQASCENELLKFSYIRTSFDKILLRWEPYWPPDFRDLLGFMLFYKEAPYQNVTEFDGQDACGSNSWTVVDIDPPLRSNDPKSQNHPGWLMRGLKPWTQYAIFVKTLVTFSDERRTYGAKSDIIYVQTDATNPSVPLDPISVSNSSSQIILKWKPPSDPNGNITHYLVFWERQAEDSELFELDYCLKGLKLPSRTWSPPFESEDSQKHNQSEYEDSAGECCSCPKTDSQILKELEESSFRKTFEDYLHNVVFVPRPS
Chain of human insulin receptor (P06213 763-1382 partner limits assumed): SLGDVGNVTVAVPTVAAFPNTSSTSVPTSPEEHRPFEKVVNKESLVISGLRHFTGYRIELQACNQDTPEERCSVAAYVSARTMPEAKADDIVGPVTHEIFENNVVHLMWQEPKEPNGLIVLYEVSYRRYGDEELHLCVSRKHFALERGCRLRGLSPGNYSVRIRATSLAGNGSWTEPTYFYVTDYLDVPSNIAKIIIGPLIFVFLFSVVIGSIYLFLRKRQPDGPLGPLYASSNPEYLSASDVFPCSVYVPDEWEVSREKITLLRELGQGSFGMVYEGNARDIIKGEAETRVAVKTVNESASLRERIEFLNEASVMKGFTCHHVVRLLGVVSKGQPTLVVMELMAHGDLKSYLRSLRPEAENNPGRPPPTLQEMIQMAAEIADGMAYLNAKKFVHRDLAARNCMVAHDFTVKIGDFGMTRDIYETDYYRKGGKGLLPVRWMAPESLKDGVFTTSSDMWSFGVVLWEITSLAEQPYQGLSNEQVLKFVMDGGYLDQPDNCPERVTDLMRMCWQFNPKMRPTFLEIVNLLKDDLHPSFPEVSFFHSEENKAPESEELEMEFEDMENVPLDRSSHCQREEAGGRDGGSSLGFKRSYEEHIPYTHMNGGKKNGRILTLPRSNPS
Description: SPA-PVT antibody-binding beads, anti-mouse reagent (Amersham Biosciences, Cat No. PRNQ0017) were mixed with 25 ml of binding buffer (100 mM HEPES pH 7.8; 100 mM sodium chloride, 10 mM MgSO4, 0.025% Tween-20). […] A total of 100 μl was then added and a dilution series is made from appropriate samples. To the dilution series was then added 100 μl of reagent mix and the samples were incubated for 16 hours while gently shaken. The phases were the then separated by centrifugation for 1 min and the plates counted in a Topcounter. The binding data were fitted using the nonlinear regression algorithm in the GraphPad Prism 2.01 (GraphPad Software, San Diego, Calif.).

[2] = Self-association by size exclusion chromatography (SEC), Kav; format: physicochemical
Description: The ability of the insulin derivatives of the invention to self-associate into large, but soluble complexes is analysed using SEC (size exclusion chromatography):
The following equation is used to determine the Kav for the derivative: Kav=(t−t0)/(Vt/(f+td−t0)) Where t is the retention time for a given peak, t0 is the retention time for Blue dextran, Vt is the total column volume (here 2.4 ml), f is the flow (here 0.04 ml/min), and td is the retention time for Blue dextran without the column in the system.

[3] = LiChrosorb RP18, 40° C., pH 7.3, HI = 1
[4] = recombinant human insulin receptor-exon 11, SPA

Substance | Hydrophobicity relative to human insulin [1, 3] | Hydrophobicity relative to human insulin ([1]; class symbol, HI = 1) | Insulin receptor affinity relative to human insulin (human insulin receptor; class symbol) | Insulin receptor affinity relative to human insulin (human insulin receptor; [4]) [%] | Self-association: Kav ([2]; SEC Superose 6, 37° C., 0.6 mM derivative, 2.1 Zn2+/hexamer, 16 mM phenol, pH 7.8, one value per peak) | Self-association: % area of peak ([2]; area of the peak whose Kav is in the cell above) | Self-association: Kav ([2]; class symbol)
N^εB29-(3-(3-{4-[3-(7-carboxyheptanoylamino)propoxy]butoxy}propylcarbamoyl)-propionyl-γ-glutamylamide) desB30 human Insulin [Example 11] | 0.435 | +++ (k'rel < 1: +++) | ++ (5-50%: ++) | 43 | – | – | –
N^εB29-ω-carboxy-pentadecanoyl-γ-L-aspartylamide desB30 human insulin [Example 6] | – | – | ++ (5-50%: ++) | 33 | – | – | –
N^εB29-ω-carboxy-undecanoyl-δ-amino-butanoyl desB30 human insulin [Example 13] | 0.552 | +++ (k'rel < 1: +++) | +++ (>50%: +++) | 59 | 0.69 | (100%) | + (Kav ≧ 0.55: +)
